Reference: patent US20220177587A1, “METHODS AND USES OF VARIANT CD80 FUSION PROTEINS AND RELATED CONSTRUCTS” (Alpine Immune Sciences, Inc., priority 2018, published 2022)
Positions count from the first letter of the chain named. Names may count otherwise.

B1: E35D/D46E (protein)
chain: VIHVTKEVKEVATLSCGHNVSVEELAQTRIYWQKDKKMVLTMMSGEMNIWPEYKNRTIFDITNNLSIVILALRPSDEGTYECVVLKYEKDAFKREHLAEVTLSVKAD
B2: H18Y/E35D (protein)
chain: B1 chain with H18Y, E46D
B3: Q27L/E35D/M47V/I61V/L85M (protein)
chain: B1 chain with Q27L, E46D, M47V, I61V, L85M
B4: E35D/T41S/N48T (protein)
chain: B1 chain with T41S, E46D, N48T
B5: E35D/M43I/M47L/V68M (protein, UniProt P33681 35-288, looked up, variant E35D M43I M47L V68M)
T-lymphocyte activation …: VIHVTKEVKEVATLSCGHNVSVEELAQTRIYWQKDKKMVLTMISGDLNIWPEYKNRTIFDITNNLSIMILALRPSDEGTYECVVLKYEKDAFKREHLAEVTLSVKADFPTPSISDFEIPTSNIRRIICSTSGGFPEPHLSWLENGEELNAINTTVSQDPETELYAVSSKLDFNMTTNHSFMCLIKYGHLRVNQTFNWNTTKQEHFPDNLLPSWAITLISVNGIFVICCLTYCFAPRCRERRRNERLRRESVRPV
B6: E35D/M47L/Y53F/V68M/A71G/K93R/E95V (protein, UniProt P33681 35-288, looked up, variant E35D M47L Y53F V68M A71G K93R E95V)
T-lymphocyte activation …: B5 T-lymphocyte activation … with I43M, Y53F, A71G, K93R, E95V
B7: H18Y/E35D/M38I/M47L/V68M/L85M (protein, UniProt P33681 35-288, looked up, variant H18Y E35D M38I M47L V68M L85M)
T-lymphocyte activation …: B5 T-lymphocyte activation … with H18Y, M38I, I43M, L85M

How the values were obtained:
CD28 [1] = target: T1, CD28 (Homo sapiens, UniProt P10747); test: Flow binding to Jurkat/IL2 reporter cells (CD28); parameters: host or cells: Jurkat cells expressing an IL-2-luciferase reporter; settings: 33.3 nM; for CD28 MFI at 33.3 nM: Jurkats (CD28)
In short: (§1)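 Flow cytometry on transfected CHO cells or CD28+ Jurkat/IL2 reporter cells, blocked 20 min in PBS/1% BSA/0.1% azide. Fusion protein 45 min on ice; PE anti-human Fc 1:150, 30 min on ice; fixed in 2% formaldehyde. Read-out PE MFI, EC50 calculated.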

CD28 [2] = target: T1, CD28; test: Jurkat/IL2 + CHO/OKT3 +/- PD-L1 reporter assay: PD-L1-dependent CD28 costimulation; type: cell-based; parameters: host or cells: Jurkat cells expressing an IL-2-luciferase reporter; settings: Jurkat/IL2 + CHO/OKT3/PD-L1, 5.0 nM
In short: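 Jurkat reporter cells (100,000/well) preincubated 15 min at room temperature with test protein, then cocultured 5 h at 37 °C with CHO aAPCs bearing anti-CD3 scFv (OKT3) with or without PD-L1. Luciferase luminescence (RLU) read after lysis-substrate addition.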

huCTLA4 = huCTLA4 (Homo sapiens, UniProt P16410); test: Flow binding to CHO cells stably expressing CTLA4; parameters: huCTLA4 and huPD-L1, full-length mammalian surface expression constructs were generated; expressed in transfected cells; host or cells: CHO cells, lentiviral transduction, sorted to >98% purity; settings: 33.3 nM; for CTLA4 MFI at 33.3 nM: CHO cells stably expressing CTLA4
In short: as §1

huPD-L1 = huPD-L1 (Homo sapiens, UniProt Q9NZQ7); test: Flow binding to CHO cells stably expressing PD-L1; parameters: huCTLA4 and huPD-L1, full-length mammalian surface expression constructs were generated; expressed in transfected cells; host or cells: CHO cells, lentiviral transduction, sorted to >98% purity; settings: for PD-L1 MFI at 33.3 nM: CHO cells stably expressing PD-L1; for PD-L1 MFI at 33.3 nM / PD-L1 Fold change to WT CD80: 33.3 nM
In short: as §1

[3] = Table E10, relative to CD80 WT IgV-Fc
[4] = Table E10, binding to PD-L1 compared to binding to CD28
[5] = Table E11, listed as WT CD80 ECD-Fc = 1.0

huPD-L1, sequence (Q9NZQ7 19-290): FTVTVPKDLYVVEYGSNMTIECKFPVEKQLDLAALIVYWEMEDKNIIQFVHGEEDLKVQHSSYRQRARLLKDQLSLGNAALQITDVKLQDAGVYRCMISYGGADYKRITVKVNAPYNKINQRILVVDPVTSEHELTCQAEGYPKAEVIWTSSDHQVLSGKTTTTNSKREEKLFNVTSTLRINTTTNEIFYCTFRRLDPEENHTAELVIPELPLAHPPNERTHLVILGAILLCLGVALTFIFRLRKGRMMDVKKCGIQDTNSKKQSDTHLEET
huCTLA4, sequence (P16410 36-223): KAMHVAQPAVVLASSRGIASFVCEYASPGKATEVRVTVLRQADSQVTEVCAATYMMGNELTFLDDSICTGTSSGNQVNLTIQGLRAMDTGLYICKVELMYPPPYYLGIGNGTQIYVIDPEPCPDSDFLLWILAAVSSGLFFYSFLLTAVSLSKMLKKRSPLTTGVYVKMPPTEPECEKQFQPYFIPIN

Molecule | CD28 MFI at 33.3 nM (CD28 [1]; Table E10) | CD28 Fold change to WT CD80 (CD28 [1]; [3]) | Fold Increase over WT CD80-IgV-Fe (CD28 [2]; Table E12) | Relative Luciferase Units (RLU), CD80 Cone 5.0 nM (CD28 [2]; Table E12) | CTLA4 MFI at 33.3 nM (huCTLA4; Table E10) | CTLA4 Fold change to WT CD80 (huCTLA4; [3]) | PD-L1 MFI at 33.3 nM (huPD-L1; Table E10) | PD-L1 Fold change to WT CD80 (huPD-L1; [3]) | Ratio of PDL1:CD28 (huPD-L1; [4]) | CD28 Fold change to WT CD80 (CD28 [1]; [5]) | CD28 MFI at 33.3 nM (CD28 [1]; Table E11) | Fold Increase over WT CD80-IgV-Fe (CD28 [2]; Table E13) | Relative Luciferase Units (RLU), CD80 Cone 5.0 nM (CD28 [2]; Table E13) | CTLA4 Fold change to WT CD80 (huCTLA4; [5]) | CTLA4 MFI at 33.3 nM (huCTLA4; Table E11) | PD-L1 Fold change to WT CD80 (huPD-L1; [5]) | PD-L1 MFI at 33.3 nM (huPD-L1; Table E11) | Ratio of PDL1:CD28 (huPD-L1; Table E11, MFI at 33.3 nM)
B1 | 779 | 11.8 | 4.9 | 1961 RLU | 27921 | 14.6 | 3757 | 53.4 | 5 |  |  |  |  |  |  |  |  | 
B2 | 479 | 7.3 | 5.0 | 1990 RLU | 26258 | 13.7 | 3526 | 50.2 | 7 |  |  |  |  |  |  |  |  | 
B3 | 230 | 3.5 | 2.9 | 1166 RLU | 27881 | 14.6 | 2705 | 38.5 | 12 |  |  |  |  |  |  |  |  | 
B4 | 72.4 | 1.1 | 2.8 | 1136 RLU | 30262 | 15.8 | 2191 | 31.2 | 30 |  |  |  |  |  |  |  |  | 
B5 |  |  |  |  |  |  |  |  |  | 48.3 | 1517 | 2.7 | 1072 RLU | 9.3 | 16243 | 328.4 | 16912 | 11.1
B6 |  |  |  |  |  |  |  |  |  | 12.2 | 383 | 3.9 | 1546 RLU | 9.1 | 16013 | 485.9 | 25024 | 65.3
B7 |  |  |  |  |  |  |  |  |  | 0.5 | 16.7 | 0.5 | 198 RLU | 0.1 | 139 | 69.7 | 3589 | 214.9
